Tests used:
[1] = target: T cell Immunoglobulin- and Mucin domain-containing molecule 3 (TIM3), human, on cells (human) (UniProt Q8TDQ0); test: flow cytometry; cells not named in the table (Example 5 uses Pfeiffer cells)
[2] = target: T1, T cell Immunoglobulin- and Mucin domain-containing molecule 3 (TIM3), human, on cells (human, UniProt Q8TDQ0 22-301); test: as above
T1 construct: TIM3 as carried by human cell lines (Pfeiffer, Daudi, CMK) and by primary cells of patients; also called HAVCR2; KIM-3
T1 sequence: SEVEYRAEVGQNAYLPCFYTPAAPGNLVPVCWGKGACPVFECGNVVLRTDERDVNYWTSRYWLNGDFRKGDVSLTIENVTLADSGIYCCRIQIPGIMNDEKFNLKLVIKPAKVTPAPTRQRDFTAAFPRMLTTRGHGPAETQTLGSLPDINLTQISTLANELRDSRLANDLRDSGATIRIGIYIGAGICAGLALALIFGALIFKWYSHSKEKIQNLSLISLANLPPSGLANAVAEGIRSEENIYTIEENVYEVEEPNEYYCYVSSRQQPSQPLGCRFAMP

[3] = target: T1, T cell Immunoglobulin- and Mucin …; test: cell binding (flow cytometry), Pfeiffer cells
[4] = target: T1, T cell Immunoglobulin- and Mucin …; test: flow cytometry, PBMCs of AML patient 3, CD34+CD38- population
[5] = target: T1, T cell Immunoglobulin- and Mucin …; test: flow cytometry, PBMCs of AML patient 3, Blast population
[6] = target: T1, T cell Immunoglobulin- and Mucin …; test: cell-based or functional assay
[7] = target: T1, T cell Immunoglobulin- and Mucin …; test: flow cytometry, TIM3 expressing cell lines

IgG2bk-BZAP (antibody)
% Positive for TIM3 [1]: 0.195%
GeoMean (Intensity of TIM3 binding) [1]: 6.48

Mouse IgG1k-Biotin (antibody)
% Positive for TIM3 [1]: 0.192%
GeoMean (Intensity of TIM3 binding) [1]: 5.06

Mouse IgG1k-BZAP (antibody)
% Positive for TIM3 [1]: 0.501%
GeoMean (Intensity of TIM3 binding) [1]: 5.33

Mouse IgG2ak-Biotin (antibody)
% Positive for TIM3 [1]: 0.49%
GeoMean (Intensity of TIM3 binding) [1]: 5.83

B1: 27.12E12-Biotin (antibody, V domains shown)
VH: EVQLQQSGAELVRPGALVKLSCKASGFNIKDYYMYWMKQRPEQGLEWIGWIDPENVKTIYDPKFQGRATLTADTSSNTAYLQLSSLTSEDTAVYYCTRDFGYVGFFDVWGAGTTVTVSS
VL: DIVMTQSQKFMSTSVGDRVSVNCKASQNVGTNVVWYQQKPGQSPKALIYSASYRYSGVPDRFTGSGSGTDFTLTISTVQSEDLAEYFCQQYNSYPLTFGGGTKLEIKR
notes: 27.12E12 (mouse IgG2b,k) biotinylated
% Positive for TIM3 [2]: 96.8%
GeoMean (Intensity of TIM3 binding) [2]: 202

B2: 27.12E12-BZAP (antibody, V domains shown)
VH: EVQLQQSGAELVRPGALVKLSCKASGFNIKDYYMYWMKQRPEQGLEWIGWIDPENVKTIYDPKFQGRATLTADTSSNTAYLQLSSLTSEDTAVYYCTRDFGYVGFFDVWGAGTTVTVSS
VL: DIVMTQSQKFMSTSVGDRVSVNCKASQNVGTNVVWYQQKPGQSPKALIYSASYRYSGVPDRFTGSGSGTDFTLTISTVQSEDLAEYFCQQYNSYPLTFGGGTKLEIKR
notes: Biotinylated 27.12E12 (mouse IgG2b,k) conjugated to streptavidin-saporin (SAv-ZAP)
% Positive for TIM3 [2]: 98.8%
GeoMean (Intensity of TIM3 binding) [2]: 268

B3: 9.1G12 (antibody, V domains shown)
VH: EVMLVESGGGLVKPGGSLKLSCAASGFTFSSYAMSWVRQTPERKLEWVATISSGGTYTYYPDSVKGRFTISRDNAKNRLYLQMSGLRSEGTAMYYCVRPDYTHDDGGFAYWGQGTLVTVSA
VL: QAVVTQESALTTSPGETVTLTCRSSTGAVTTSNYANWVQEKPDHLFTGLIGGTNNRAPGVPARFSGSLIGDKAALTITGAQTEDEAIYFCALWYSNHWVFGGGTKLTVL
notes: also called 9.1G12.8
percentage of cell binding [3]: 14%
percent binding [4]: 0.23%
percent binding [5]: 0.67%
IL-6 release from activated CD4+ T cells (ELISA), antibody at 5 ug/ml [6]: > 2 fold reduction

B4: 9.1G12.8-Biotin (antibody, V domains shown)
VH: EVMLVESGGGLVKPGGSLKLSCAASGFTFSSYAMSWVRQTPERKLEWVATISSGGTYTYYPDSVKGRFTISRDNAKNRLYLQMSGLRSEGTAMYYCVRPDYTHDDGGFAYWGQGTLVTVSA
VL: QAVVTQESALTTSPGETVTLTCRSSTGAVTTSNYANWVQEKPDHLFTGLIGGTNNRAPGVPARFSGSLIGDKAALTITGAQTEDEAIYFCALWYSNHWVFGGGTKLTVL
notes: 9.1G12 (mouse IgG2b,l) biotinylated
% Positive for TIM3 [2]: 55.4%
GeoMean (Intensity of TIM3 binding) [2]: 23.1

B5: 9.1G12.8-BZAP (antibody, V domains shown)
VH: EVMLVESGGGLVKPGGSLKLSCAASGFTFSSYAMSWVRQTPERKLEWVATISSGGTYTYYPDSVKGRFTISRDNAKNRLYLQMSGLRSEGTAMYYCVRPDYTHDDGGFAYWGQGTLVTVSA
VL: QAVVTQESALTTSPGETVTLTCRSSTGAVTTSNYANWVQEKPDHLFTGLIGGTNNRAPGVPARFSGSLIGDKAALTITGAQTEDEAIYFCALWYSNHWVFGGGTKLTVL
notes: Biotinylated 9.1G12 (mouse IgG2b,l) conjugated to streptavidin-saporin (SAv-ZAP); also called 9.1G12-BZAP
% Positive for TIM3 [2]: 97.4%
GeoMean (Intensity of TIM3 binding) [2]: 168

B6: 27.2H4 (antibody, IgG1, V domains shown)
VH: EVQLQQSGAELVRPGALVKLSCKASGFNIKHYYIHWVNQRPEQGLEWIGWIDPETGNTIYDPKFQGKASITADTSSSTAYLQLNSLTSEDTAVYCCARGWSYAMDYWGQGTSVIVSS
VL: DIVMTQSHKFMSTSVGDRVSITCKASQDVNTAVAWYQQKPGHSPKLLIYSASYHYTGVPDRFTGSGSGTDFTFTISSVQAEDLAVYYCQQHYSTPWTFGGGTKLEIK
notes: also called 27.2H4 (D2.1)
percentage of cell binding [3]: 75%
percent binding [4]: 0.69%
percent binding [5]: 1.07%

B7: 33.1G12 (antibody, IgG1, V domains shown)
VH: EVQLQQSGPELVKPGASVKISCKASGYSFTGYLMNWVMQSHGKSLEWIGRINPYNGDIFYNQKFKDKATLTVDKSSSTAHMELRSLASEDSAVYYCARRDENFDYDNAMDYWGQGTSVTL
VL: DIVLTQSPASLAVSLGQRATISCRASESVDIYGNSFMHWYQQKPGQPPKLLIYRASNLESGIPARFRGSGSRTDFTLTIYPVEADDVATYYCQQSNEDPWTFGGGTKLEIK
notes: the printed VH ends early (…GQGTSVT)
binding result [7]: binds

B8: 1.7E10 (antibody, V domains shown)
VH: EVKLLESGGGLVQPGGSLKLSCAASGFDFSRYWMSWVRQAPGKGLEWIGEINPDSSTINYTPSLKDKFIISRDNAKNTLFLQMSKVRSEDTALYYCARPSYDGYYGYAMDYWGQGTSVTVSS
VL: DIVLTQSPASLAVSLGQRATISCRASESVDSYGKSFMHWYQQKPGQPPKLLIYRASNLESGIPARFSGSGSRTDFTLTINPVEADDVATYYCQQSNEDPYTFGGGTKLEIKR
IFN-gamma release from activated CD4+ T cells (ELISA), antibody at 5 ug/ml [6]: > 2 fold reduction

B9: 1.7E10.12-Biotin (antibody, V domains shown)
VH: EVKLLESGGGLVQPGGSLKLSCAASGFDFSRYWMSWVRQAPGKGLEWIGEINPDSSTINYTPSLKDKFIISRDNAKNTLFLQMSKVRSEDTALYYCARPSYDGYYGYAMDYWGQGTSVTVSS
VL: DIVLTQSPASLAVSLGQRATISCRASESVDSYGKSFMHWYQQKPGQPPKLLIYRASNLESGIPARFSGSGSRTDFTLTINPVEADDVATYYCQQSNEDPYTFGGGTKLEIKR
notes: 1.7E10 (mouse IgG1,k) biotinylated with the EZ-link Sulfo NHS-LC-Biotinylated kit
% Positive for TIM3 [2]: 99.2%
GeoMean (Intensity of TIM3 binding) [2]: 354

B10: 1.7E10.12-BZAP (antibody, V domains shown)
VH: EVKLLESGGGLVQPGGSLKLSCAASGFDFSRYWMSWVRQAPGKGLEWIGEINPDSSTINYTPSLKDKFIISRDNAKNTLFLQMSKVRSEDTALYYCARPSYDGYYGYAMDYWGQGTSVTVSS
VL: DIVLTQSPASLAVSLGQRATISCRASESVDSYGKSFMHWYQQKPGQPPKLLIYRASNLESGIPARFSGSGSRTDFTLTINPVEADDVATYYCQQSNEDPYTFGGGTKLEIKR
notes: Biotinylated 1.7E10 (mouse IgG1,k) conjugated to streptavidin-saporin (SAv-ZAP)
% Positive for TIM3 [2]: 99.3%
GeoMean (Intensity of TIM3 binding) [2]: 436

B11: 6.14B9-Biotin (antibody, V domains shown)
VH: DVQLQESGPGLVKPSQSLSLTCTVTGYSITSDYAWNWIRQFPGNKLEWMGYISYSGSISYNPSLKSRISITRDTSKNQFFLQLNSVTTEDTATYYCARSGRLRRDFDYWGQGTTLT
VL: DIQMTQSPSSLSASLGERVSLTCRASQEISGYLSWLQQKPDGTIKRLIYAASTLDSGVPKRFSGSRSGSDYSLTISSLESEDFADYYCLQYASYPLTFGAGTKLELK
notes: 6.14B9 (mouse IgG1,k) biotinylated
% Positive for TIM3 [2]: 48.2%
GeoMean (Intensity of TIM3 binding) [2]: 20.4

B12: 6.14B9-BZAP (antibody, V domains shown)
VH: DVQLQESGPGLVKPSQSLSLTCTVTGYSITSDYAWNWIRQFPGNKLEWMGYISYSGSISYNPSLKSRISITRDTSKNQFFLQLNSVTTEDTATYYCARSGRLRRDFDYWGQGTTLT
VL: DIQMTQSPSSLSASLGERVSLTCRASQEISGYLSWLQQKPDGTIKRLIYAASTLDSGVPKRFSGSRSGSDYSLTISSLESEDFADYYCLQYASYPLTFGAGTKLELK
notes: Biotinylated 6.14B9 (mouse IgG1,k) conjugated to streptavidin-saporin (SAv-ZAP)
% Positive for TIM3 [2]: 43.9%
GeoMean (Intensity of TIM3 binding) [2]: 22.5

B13: 27.12A6 (antibody, V domains shown)
VH: EVKLVESGGGLVQPGGSLNLSCAASGFTFSSYTMSWVRQTPEKRLEWVAYISSGGHSTYFPDTVKGRFTISRDNAKNTLYLQMSSLKSEDTAVYYCARGGYGNYGPYYNMDYWGQGTSVTVSS
VL: NIMMTQSPSSLAVSAGEKVTMSCKSSQSVLYSSNQKNYLAWYQQKPGQSPKLLIYWASTRESGVPDRFTGSGSGTDFTLTINNVQAEDLAVYYCHQYLSSWTFGGGTKLEIK
notes: also called 27.12A6 (D2.2)
binding result [7]: binds

B14: 6.16F9 (antibody, V domains shown)
VH: EVNLVESGGGLVQPGGSLKLSCAASGFTFSSYTMSWVRQSPEKRLEWVAYTSSSGASTYYPDTVKGRFTISRDNAKNTLHLQMSSLKSEDTAMYYCARGGYGNYGPYYALDYWGQGTSVTVSS
VL: NIMMTQSPSSLAVSAGEKVTMSCKSSQSVLYSSNQKNYLAWYQQKPGQSPKLLIYWASTRESGVPDRFTGSGSETDFTLTISSVQTEDLAVYYCHQYLSSWTFGGGTKLEIK
notes: also called 6.16F9 (D2.4)
binding result [7]: binds

B15: 7.10F6 (antibody, IgG1, V domains shown)
VH: EVQLVESGGGLVQPGGSLKLSCAASGFIFSGYGMSWVRQTPDKRLELVAIINSNGGSVDYPDSVKGRVTISRDNAKNTLYLQMSSLKSEDTAMYYCARIYYRCMDYWGQGTSVTVSS
VL: NIMMTQSPSSLAVSAGEKVTMSCKSSQSLLYSSNQKNYLAWYQQKPGQSPKLLIYWASARESGVPDRFTGGGSGTDFTLTISSVQAEDLAVYYCHQYLSSYTFGGGTKLEIKR
notes: also called 7.10F6.1; 7.10F6.1-pure
percentage of cell binding [3]: 92%
percent binding [4]: 0.6%
percent binding [5]: 1.33%
% Positive for TIM3 [2]: 93.3%
GeoMean (Intensity of TIM3 binding) [2]: 142
IFN-gamma release from activated CD4+ T cells (ELISA), antibody at 5 ug/ml [6]: > 2 fold reduction
